This is an account of results in US20260265717A1.

In this assay the target is T1, MG64-1 Cas12k expressed with an N-terminal Twin Strep tag and an HRV3C protease site and a C-terminal 2xNLS tag.
T1 sequence: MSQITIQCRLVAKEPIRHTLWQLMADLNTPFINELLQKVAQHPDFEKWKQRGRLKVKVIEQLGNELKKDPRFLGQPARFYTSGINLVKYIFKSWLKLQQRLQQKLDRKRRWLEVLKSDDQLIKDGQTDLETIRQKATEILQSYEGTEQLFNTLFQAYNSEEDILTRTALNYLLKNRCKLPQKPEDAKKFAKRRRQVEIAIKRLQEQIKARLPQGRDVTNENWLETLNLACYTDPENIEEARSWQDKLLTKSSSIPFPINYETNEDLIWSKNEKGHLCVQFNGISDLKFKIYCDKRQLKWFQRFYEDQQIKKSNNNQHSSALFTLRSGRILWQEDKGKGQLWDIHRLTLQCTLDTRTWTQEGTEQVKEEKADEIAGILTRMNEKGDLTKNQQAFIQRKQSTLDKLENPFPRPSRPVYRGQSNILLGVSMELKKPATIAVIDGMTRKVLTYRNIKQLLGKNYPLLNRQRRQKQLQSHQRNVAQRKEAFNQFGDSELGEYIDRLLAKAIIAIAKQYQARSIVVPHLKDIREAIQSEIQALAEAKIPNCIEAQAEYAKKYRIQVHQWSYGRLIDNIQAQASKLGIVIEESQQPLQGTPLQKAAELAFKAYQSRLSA
Kind of assay: mass spectrometry of tryptic peptides from SEC-eluted Cas12k Strep pulldown complex; emPAI is a relative measure of abundance.

B1: MG64-1 TniQ (protein)
chain: MESREIQPWWFLVEPLAGESISHFLGRFRRENELTVTMMGKITGLGGTITRWEKFRFIPIPTEEELTALSEVVQVEVERLWQMFPPKGVGMKHQPIRLCGACYEEERCHKIEWQLKTTQFCSQHGLTLLSECPNCGARFQFPALWVNGWCHRCFLTFGEMVEGQSNKKKYL
With B1, the emPAI is 1.61.

B2: MG64-1 TnsC (protein)
chain: MTIQEAQAVAKQLGDIQLTSEKLQAEIQRLNRKTVVTLSHVEALHNWLEGKRQAKQSCRVVGESRTGKTIACNAYRLRHKPIQTPGKPPIVPVVYIQVTQECGAKDLFGAIIEHLKYQMTKGTVAEIRQRTFKVLQRCGVEMLIIDEADRLKPKTFAEVRDIFDKLNIAVVLVGTDRLDAVIKRDEQVYNRFRACHRFGKLAGDEFSQTVNIWERQVLKLPVASNLSSKRMLKILGQATGGYLGLLDMILRESAIRALKKGLQKIDLDTLKEVTEEYR
B2: the emPAI was 2.43.
